Test results reported in patent US7871610B2, “Antibodies to Tie1 ectodomain” (Dyax Corp., priority 2003, dated 2011).

What was measured:
[1] = target: T1, Tie1 (Homo sapiens, UniProt P35590); assay: Confocal microscopy staining of HUVEC; type: binding; set-up: endogenous in cells; host or cells: HUVEC; conditions: biotinylated antibody 10 μg/ml, fixed cells
Procedure: We analyzed the staining pattern of E3 in HUVECS using confocal microscopy. HUVEC were trypsinised, washed with PBS and spotted at a density of 60 000 cells on a gelatine coated microscope slide and incubated for 24 hours in a humidified incubator at 37° C. Cells were air dried and fixed with 4% paraformaldehyde for 20 minutes at room temperature. The slides were washed with PBS. The slides were incubated with 10% Heat inactivated human serum (incubation buffer).
For measuring specific binding to Tie-1, biotinylated antibody E3 and biotinylated negative control antibody A2 were used at a concentration of 10 μg/ml and incubated for 1 hour at room temperature. Slides were washed twice with PBS. Then, Strepatvidin-R-phycoerythrin (Dako, Glostrup, Denmark) was added and incubated for 1 hour at room temperature. After the last incubation and washing detection of bound antibodies was performed by means of confocal microscopy.

[2] = target: T1, Tie1; assay: Tie1 phosphorylation assay in HDMVECs; type: cell-based
Procedure: COS1 cells were transfected with pcDNA3-Tie1-V5. After 24 h of transfection, the cells were serum starved for 8 h and then treated with E3 IgG. For the Tie1 phosphorylation assay, HDMVECs were cultured on 10 cm dishes to near confluence, starved (8-16 h) in serum free medium and stimulated as indicated. After the stimulations, the cells were lysed in lysis buffer (RIPA-DOC: 50 mM Tris-HCl pH 8.0, 150 mM NaCl, 1% Triton-X-100, 0.1% SDS, 0.5% DOC, 10 mM EDTA, supplemented with aprotinin, leupeptin, PMSF and sodium vanadate). Clarified lysates from transfected COS1 cells or HDMVECs were immunoprecipitated with anti-V5 or anti-Tie1 B9, respectively. Proteins were separated by SDS-PAGE, transferred to nitrocellulose and immunoblotted using the anti-phosphotyrosine and anti-Tie1 (R&D systems) antibodies.
To test if the E3 IgG binding to the extracellular region of Tie1 induces autophosphorylation of Tie1, the Tie1 receptor phosphorylation level in response to E3 IgG treatment was studied in transiently transfected COS1 cells and human primary endothelial cells. COS1 cells were transfected with an expression vector containing a V5-tagged full length Tie1 cDNA, and, after serum starvation, the cells were treated with E3 IgG (200 ng/ml). Cell lysates were extracted at several time points and Tie1 was immunoprecipitated with anti-V5 followed by western blotting using anti-phosphotyrosine and anti-Tie1 antibodies. […] To determine if E3 IgG induces Tie1 phosphorylation in primary endothelial cells, HDMVEC cells were serum starved and stimulated with several concentrations of E3 for 60 min. […] Also higher concentrations of E3 (500-1000 ng/ml) induced Tie1 phosphorylation but the response was more rapid and was most prominent after 5 min of stimulation.
To study the kinetics of E3 IgG induced Tie1 activation, cells were stimulated with E3 IgG (200 ng/ml) and receptor phosphorylation was studied at various time points. Tie1 phosphorylation was highest 15-30 min after E3 IgG treatment but phosphorylation persisted for up to 1 h.

[3] = tested on: Tie-1; assay: Immunohistochemistry of mouse SW480 xenograft tumor sections; conditions: biotinylated E3 IgG1 10 μg/ml, paraffin sections
Procedure: We determined if antibody E3 binds to mouse endothelial cells in mouse xenographs. Immunohistochemistry was performed with biotinylated E3 IgG1 (a,z allotype) antibody and control antibodies anti-CD31 (endothelial cell specific marker) and anti-PCNA (proliferating cell nuclear antigen). Formalin-fixed tumor tissues from a mouse-xenograph containing SW480 cells (ATCC) were tested for the binding pattern of the human anti-Tie1 antibody E3. 5 μm sections of paraffin embedded tissues were deparaffinized, rehydrated and pretreated with warm the citrate buffer (0.01 M sodium citrate, pH6 at 95° C.) for 45 min. The slides were cooled down in fresh citrate buffer for 20 min and rinsed with distilled water. The slides were hydrogen peroxide treated, (0.3% H2O2 in PBS), and preincubated with PBS, 5% FCS, 5% heat inactivated human serum (HS) for 1 hour. Between antibody incubations slides were washed 3 times 5 minutes in PBS. Biotinylated antibodies E3 and A2-SV were diluted to a concentration of 10 μg/ml in PBS, 10% HS and incubated for 1 hour at RT. Slides were then incubated with an avidin-HRP (Dako) for 30 minutes at room temperature. Staining was detected by AEC (Vector Laboratories, Burlingame) and H2O2. The peroxidase reaction was stopped with water and slides were counter-stained with haematoxylin. The tissues were evaluated for their binding reactivity.

T1 sequence (P35590 22-1138): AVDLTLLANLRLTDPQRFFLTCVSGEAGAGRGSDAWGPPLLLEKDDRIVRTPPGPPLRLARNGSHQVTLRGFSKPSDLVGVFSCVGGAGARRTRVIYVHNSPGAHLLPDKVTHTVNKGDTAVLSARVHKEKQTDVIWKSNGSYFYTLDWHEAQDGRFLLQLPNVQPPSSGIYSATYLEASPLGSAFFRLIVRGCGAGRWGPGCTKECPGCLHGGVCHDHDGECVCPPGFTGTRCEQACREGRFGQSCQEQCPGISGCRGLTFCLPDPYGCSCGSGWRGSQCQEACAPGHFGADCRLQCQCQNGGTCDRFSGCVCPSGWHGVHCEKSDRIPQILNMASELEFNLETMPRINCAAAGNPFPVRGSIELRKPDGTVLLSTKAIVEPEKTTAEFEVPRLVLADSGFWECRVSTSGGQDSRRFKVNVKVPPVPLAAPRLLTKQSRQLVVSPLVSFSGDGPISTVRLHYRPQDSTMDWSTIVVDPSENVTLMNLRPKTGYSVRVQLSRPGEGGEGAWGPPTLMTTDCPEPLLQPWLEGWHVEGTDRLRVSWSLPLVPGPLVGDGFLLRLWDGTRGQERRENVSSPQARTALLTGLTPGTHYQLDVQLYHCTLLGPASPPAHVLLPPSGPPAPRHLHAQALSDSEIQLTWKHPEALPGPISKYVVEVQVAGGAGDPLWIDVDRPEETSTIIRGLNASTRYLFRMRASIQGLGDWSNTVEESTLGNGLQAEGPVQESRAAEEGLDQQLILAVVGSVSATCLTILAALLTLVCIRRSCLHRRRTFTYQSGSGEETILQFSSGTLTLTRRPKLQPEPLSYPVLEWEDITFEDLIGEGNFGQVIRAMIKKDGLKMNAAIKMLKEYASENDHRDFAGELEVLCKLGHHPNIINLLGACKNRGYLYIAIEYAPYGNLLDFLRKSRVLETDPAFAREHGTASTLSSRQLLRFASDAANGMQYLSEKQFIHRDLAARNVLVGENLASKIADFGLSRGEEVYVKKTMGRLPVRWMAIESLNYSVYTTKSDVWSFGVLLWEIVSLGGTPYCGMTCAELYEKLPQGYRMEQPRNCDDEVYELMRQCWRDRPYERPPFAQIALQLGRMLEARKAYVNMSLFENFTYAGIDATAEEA

B1: E3: human anti-Tie1 antibody from Fab phage library; HC SEQ ID NO:114, LC SEQ ID NO:116 (antibody, V domains shown)
VH: EVQLLESGGGLVQPGGSLRLSCAASGFTFSMYGMVWVRQAPGKGLEWVSVISPSGGNTGYADSVKGRFTISRDNSKNTLYLQVNSLRAEDTAVYYCARAPRGYSYGYYYWGQGTLVTVSSASTKGPSVFPLAPSSKSTSGG
VL: DIQMTQSPLSLSASVGDRVTITCRASQGIGHYLAWYQQKPGKVPKLLIYTASTLQSGVPSRFSGSGSGTDFTLTINSLQPEDVATYYCQQFNSYPHTFGQGTRLDIK
modifications: Synthetically generated peptide
binding to HUVEC by confocal microscopy [1]: binds specifically to HUVEC | localisation of staining in HUVEC [1]: pre-dominantly located inside of the cell | persistence of Tie1 phosphorylation ([2]; E3 IgG 200 ng/ml): up to 1 h | time of highest Tie1 phosphorylation ([2]; E3 IgG 200 ng/ml): 15 to 30 min | time of most prominent Tie1 phosphorylation ([2]; HDMVEC, E3 500-1000 ng/ml): 5 min | concentration showing Tie1 receptor phosphorylation ([2]; HDMVEC, serum starved, stimulated 60 min): 50 to 200 ng/mL | higher concentrations inducing Tie1 phosphorylation ([2]; HDMVEC, response more rapid): 500 to 1000 ng/mL | staining pattern in mouse xenograft tumor tissue [3]: consistent with staining of mouse endothelial cell Tie-1
